Common to all, as to experiment: other fluorescence titration
For assay [1], the target named is T1, Full-length, wild-type calmodulin (paramecium sequence) (paramecium, UniProt P07463 1-149).
The target of assay [2] is T2, C-domain fragment of calmodulin (CaMC, residues 76-148) (paramecium, UniProt P07463 77-149).
Assay [3] has as its target T3, N-domain fragment of calmodulin (CaMN, residues 1-75) (paramecium, UniProt P07463 2-76).
Assay [4] addresses T1, Full-length, wild-type calmodulin …. This is another data set of the same source.
Assay [5] concerns the target T2, C-domain fragment of calmodulin (CaMC, …). This is another data set of the same source.
For assay [6], the target named is T3, N-domain fragment of calmodulin (CaMN, …). The source holds these as a separate data set.

Like-named read-outs stand apart in the source and are kept apart here.

The record followed here is PMC5503752 (Biophysical chemistry, 2017).

As usually defined, the Kd is the equilibrium constant for the complex coming apart. Low readings indicate higher affinity, high ones lower affinity.

B1: NaV1.2 IQ biosensor (rat NaV1.2 residues 1901-1927 flanked by YFP and CFP) (domain or fragment)
chain: KRKQEEVSAIVIQRAYRRYLLKQKVKK
Take B1: the Kd is 3.2 nM in assay [1]; 11.6 nM in assay [2]; greater than 100 µM in assay [3]; 85 nM in assay [4]; 386 nM in assay [5]; greater than 100 µM in assay [6].
